Two substances from US20030022292A1 can be followed below.

The target in this experiment is CEACAM1 (carcinoembryonic antigen-related cellular adhesion molecule 1) on human CD4+ T lymphocytes and Jurkat cells (human) (UniProt P13688). Briefly: cell-based or functional assay.
UniProt P13688, sequence (P13688 35-526): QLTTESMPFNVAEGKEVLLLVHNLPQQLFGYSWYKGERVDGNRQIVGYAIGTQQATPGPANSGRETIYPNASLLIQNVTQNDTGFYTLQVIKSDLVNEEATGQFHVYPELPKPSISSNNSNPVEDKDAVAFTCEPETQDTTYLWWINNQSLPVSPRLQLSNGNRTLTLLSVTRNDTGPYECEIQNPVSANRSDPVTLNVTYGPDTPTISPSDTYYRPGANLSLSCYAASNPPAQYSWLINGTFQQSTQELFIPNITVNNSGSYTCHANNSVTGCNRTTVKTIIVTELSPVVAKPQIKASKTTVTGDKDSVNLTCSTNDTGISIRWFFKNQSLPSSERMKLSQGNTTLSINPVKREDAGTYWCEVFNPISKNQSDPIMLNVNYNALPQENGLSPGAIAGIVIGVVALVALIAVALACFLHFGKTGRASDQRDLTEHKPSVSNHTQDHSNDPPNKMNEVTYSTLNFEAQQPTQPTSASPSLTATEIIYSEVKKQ

In the case of “Opa52 protein of Neisseria gonorrhoeae strain MS11, expressed on gonococcal strain N309 (ligand)”, the reduction of IL-2-dependent CD4+ T lymphocyte proliferation at MOI=50, relative to Opa50-expressing gonococci was determined as 34%; the reduction of IL-2-dependent CD4+ T lymphocyte proliferation at MOI=100, relative to Opa50-expressing gonococci is 51%; the reduction of IL-2-dependent CD4+ T lymphocyte proliferation at MOI=200, relative to Opa50-expressing gonococci is 76%.

Take “Opa57 protein of Neisseria gonorrhoeae strain MS11, expressed on gonococcal strain N313 (ligand)”: the lowest multiplicity of infection at which inhibition of Jurkat proliferation was apparent (MOI (bacteria/cell)) was 25.
